The record followed here is the DeepSol protein solubility set.

This series is described as follows: soluble on expression in E. coli; label from the status in PepcDB or PDB records.
As to “SAFPIDLRGQTAFVAGVADSHGYGWAIAKHLASAGARVALGTWPPVLGLFQKSLQSGRLDEDRKLPDGSLIEFAGVYPLDAAFDKPEDVPQDIKDNKRYAGVDGYTIKEVAVKVKQDLGNIDILVHSLANGPEVTKPLLETSRKGYLAASSNSAYSFVSLLQHFGPIMNEGGSAVTLSYLAAERVVPGYGGGMSSAKAALESDTRTLAWEAGQKYGVRVNAISAGPLKSRAASAIGKSGEKSFIDYAIDYSYNNAPLRRDLHSDDVGGAALFLLSPLARAVSGVTLYVDNGLHAMGQAVDSRSMPPLQRATQEIN”, the “soluble on expression in E. coli” value was “soluble”.
With “MGSDKIHHHHHHMRKLKIGITCYPSVGGSGIIATELGKQLAEKGHEIHFITSSIPFRLNTYHPNIHFHEVEVNQYAVFKYPPYDLTLASKIAEVAERENLDIIHAHYALPHAVCAYLAKQMLKRNIGIVTTLHGTDITVLGYDPSLKDLIRFAIESSDRVTAVSSALAAETYDLIKPEKKIETIYNFIDERVYLKKNTAAIKEKHGILPDEKVVIHVSNFRKVKRVQDVIRVFRNIAGKTKAKLLLVGDGPEKSTACELIRKYGLEDQVLMLGNQDRVEDLYSISDLKLLLSEKESFGLVLLEAMACGVPCIGTNIGGIPEVIKNNVSGFLVDVGDVTAATARAMSILEDEQLSNRFTKAAIEMLENEFSSKKIVSQYEQIYADLAEPE”, the “soluble on expression in E. coli” value was “not soluble”.
With “MGSDKIHHHHHHMITIDALGQVCPIPVIRAKKALEGLGEAGGVVAVLVDNDISRQNLQKMAEGMGYQSEYQEKDNGVIEVTIVAGEGCAVETSGTPADSGLVVAIGRNTMGEGSEELGRILLKGFIYSLRELTPPPARLLFFNSGAYLTSKDSNSIEDLKAMAAQGTIIQTCGTCINYYGITEQLAVGQVANMYDIVTAMAEAKRLINI”, the “soluble on expression in E. coli” value is reported as “not soluble”.
Then “AELTALESLIEMGFPRGRAEKALALTGNQGIEAAMDWLMEHEDDPDVDEPL”, with “soluble”; and “MKTFPLQSLTLAEAQQKQFALVDTICRHFPGSEFLAGGDLGLTPSLNQPRITQRVEQVLADAFHAQAAALVQGAGTGAIRAGLAALLKPGQRLLVHDAPVYPTTRVIIEQMGLTLITADFNDLSALKQVVDEQQPDAALVQHTRQQPQDSYVLADVLATLRAAGVPALTDDNYAVMKVARIGCECGANVSTFSCFKLFGPEGVGAVVGDADVISRIRATLYSGGSQIQGSQALEVLRGLVFAPLIHAVKAGVSERLLALLNGGAVAEVKSAVIANAQSKVLIVEFHQLIAARVLEEAQKRGALPYPVGAESKYEIPPLFYRLSGTFRQANPQLEHCAIRINPNRSGEETVLRILRESIASI”, with “not soluble”; and “FLNTISTKDFKQKMADKTTGFVYVGRPTCEDCQAFQPILKKELEKRQPDQKMAYYNTDKASEKSRDDMIALLKKMDIDSVPTMVYLKDGKVASTYAATDEPAKLTNWMNKVSG”, with “not soluble”.
With “ASHSRKFLDVRSEEELLSCIKKETEAGKLPPNVAAGMEELYQNYRNAVIESGNPKADEIVLSNMTVALDRILLDVEDPFVFSSHHKAIREPFDYYIFGQNYIRPLIDFGNSFVGNLSLFKDIEEKLQQGHNVVLISNHQTEADPAIISLLLEKTNPYIAENTIFVAGDRVLADPLCKPFSIGRNLICVYSKKHMFDIPELTETKRKANTRSLKEMALLLRGGSQLIWIAPSGGRDRPDPSTGEWYPAPFDASSVDNMRRLIQHSDVPGHLFPLALLCHDIMPPPSQVEIEIGEKRVIAFNGAGLSVAPEISFEEIAATHKNPEEVREAYSKALFDSVAMQYNVLKTAISGKQGLGASTADVSLSQPW”, the “soluble on expression in E. coli” value was “soluble”.
To “MAEQISHKKSLRVSSLNKDRRLLLREFYNLENEPNKGRQEARIGEKASEAHSGEEQVTDVNIDTEANTEKPVKDDELSATEEDLKEGSEDAEEEIKNLPFKRLVQIHNKLLGKETETNNSIKNTIYENYYDLIKVNDLLKEITNANEDQINKLKQTVESLIKEL” belongs “soluble”; to “MGSDKIHHHHHHMKIPRRLEPLLEDGLIDGVVRQLMSGKEAMVFAVRCGDEIRCAKVYKEANKRSFRQAVDYTENRKTKNSRQARAMAKGSKYGRQMQEAAWQSAEVDALYRLAAAGVRVPTPYNFHEGVLLMELVADADGNAAPRLNDVSFTEGEALAHHQTLIREVVRMLCAGVVHGDLSEFNILVGADGPVIIDLPQAVDAAGNNHAQAMLMRDVHNLRGYFGQFAPALLTTRYAEEIWALYEHGSLHPEVALSGQFECEMPPVDLEGVMREIDDAREQEAARLLRLQELS”, “not soluble”; to “LTRFFGDFFLDIEVKLADVAMMYGLNLGYELQDKTLSNIVEEQLGSTPVLGDQFEWQGLQWVIADVVDHQVTKVGLRLPNEEEEGEEED”, “not soluble”.
To “MAHHHHHHMSSKGAAMTPNGNGATHESRPGKKGRPPRRRADREAAGAHFDCGSSQTTEKGGDEYQYKHPKPRVLTSSLFMWEHVAVFSMPAQVAELERVSRDVARLLEDSNTGTHPMQRYWNAQWSRMVWREEELPDEKKYLAPTMLTRSDGKRKWKNVFVQEYPLYLKRVYQGKGVCNNAVNAAKVLFNRQVLNAAKTAAELERMELTVEEARVKEQKKRGVDVEFEETPDTAPSPPWLGCHHGSYPEKGERERHEKGRPRAVKKASHETYTRSDYKEDYRTGDRKGKHKKGGTGRWSKFDDFGDYDY” belongs “not soluble”.
To “MGSDKIHHHHHHMNPNTVPPAARDVAWIKHALQTAIELEYSTLPLYLSAMFSLEVQNYTAYNAIRSIAMEEMVHMAIAANLLAALGGSPQFKPIQIAYPTTGLPGGAEPDLHVGLARYSKPQLKNFLRIETPGFLLRQLGRDEGYPTIAAFYESIRSAIARNANAVRAAVQAGGPANQVGDDIGFTTVTYKPGVDPVESFDAGIGEILQQGEGSGRGDVFAGNPFEDEESHYARFAELYYGARYQAPSPPVDFNPKNEPLFFGGPAIAAPVVVNTLAVPRDGYARILALDPERDTVESDLNAFDSGFSKILSTLDAVWNGPSSTSWKTLGAAVHGMVDLRVLSCFNIMRHAVPAAAVSQLAELYPDEIGFLRTYTDLSKPVFYGPRFVNVNGKQAS” belongs “not soluble”; to “MNRSLANVILGGYGTTSTAGGKPMEISGTHTEINLDNAIDMIREANSIIITPGYGLCAAKAQYPIADLVKMLTEQGKKVRFGIHPVAGRMPGQLNVLLAEAGVPYDIVLEMDEINHDFPDTDLVLVIGANDTVNSAAQEDPNSIIAGMPVLEVWKSKQVIVMKRSLGVGYAAVDNPIFYKPNTAMLLGDAKKTCDALQAKVRESYQK”, “soluble”.
“MAHHHHHHMSIYIQLTHDLSGTVTAVTIGDWILGILKEKNIQEYEVFFKKFLHIYQKQDKDSECNNRSEIFSLLLSASDFVFETLVETKKNNKIKVIIDNKESVKSYNEFYKEVEEYFVILISILQLEFKSVEELNNATNNFIKAIKNYNEFPELRLKILQLLYNSFNVNFSFRFPTFIAILQFCSQNNIFHNMLPYIKYIDDWIKEWNISTREKRHIYLIISQELKKLKKYEESYEHLKKHIYYYDNEHKDILNHPNSINASIELIVDAININNNIYFHEIINLHAIQNLQFIPQHQPLFDLLLIFYKYTINEFLVFKNKHGSDFFNKYNIDIQTCESKIYLLSIISLFNDHKVQNIQFISKQLNISVVQIENILVAAIGSGVIDAKIDQINQTVHMKTTILRNFDDENWKQLNNQITKYINNVQKILELTKHANK”: the “soluble on expression in E. coli” value is reported as “not soluble”.
To “TETRLLQARVSDLQRLSSLGRMVASLAHQVRTPLSSAMLYASNLGAPNLPPATRERFQSKLMDRLHDLEKQVNDMLLFAKGGDNKVIKPFTIAQLVAEYQPMVETALKNNNIDYFLEVEEEQTE” belongs “not soluble”; to “GMFTCKVNEHITIRLLEPKDAERLAELIIQNQQRLGKWLFFAENPSSADTYRETIIPDWRRQYADLNGIEAGLLYDGSLCGMISLHNLDQVNRKAEIGYWIAKEFEGKGIITAACRKLITYAFEELELNRVAICAAVGNEKSRAVPERIGFLEEGKARDGLYVNGMHHDLVYYSLLKREWEGEK”, “soluble”; to “MGSDKIHHHHHHMMTMRIAMISIHTSPLQQPGSGDAGGMNVYIISIARELARRGVDVDIYTRATRPSQGDVVEVESGLRVINIVAGPYEGLSKEELPTQLAAFAGGVVQFAKCHHMRYDVIHSHYWLSGQVGWLLRDLWNIPLVHTAHTLAAVKNAHRSAGDTEESEARRICEQQLVDNADILVVNTPEETNDLVRHYDANPDSVAVIAPGANVELFTPGTQRNTEQSRRCLGIPLHTKVMAFVGRLQQFKGPEVLLRAVAEMLERDPDRDMRVIMCGGPSGAAATVEHYIELTRSLGIAHRVRFLDPRPPEELVSVYQAADVVAVPSYNESFGLVAMEAQASGTPVVAARVGGLPIAVVDGETGVLVDGHDPIMWADALEQLLDDDPTRQQMGVAAVEHAANFTWAAAAEKLESVYGDAAMLDVAQCHDRYAAGSDRA”, “not soluble”.
To “MDYRQLHRWDLPPEEAIKVQNELRKKIKLTPYEGEPEYVAGVDLSFPGKEEGLAVIVVLEYPSFKILEVVSERGEITFPYIPGLLAFREGPLFLKAWEKLRTKPDVVVFDGQGLAHPRKLGIASHMGLFIEIPTIGVAKSRLYGTFKMPEDKRCSWSYLYDGEEIIGCVIRTKEGSAPIFVSPGHLMDVESSKRLIKAFTLPGRRIPEPTRLAHIYTQRLKKGLFLEHHHHHH” belongs “soluble”.
For the sequence “MTSRDQGINSELSNRTIQFKEKIHNGIHTEYITDQKHSNNKDREKKYRDGDKINGPQAHSLDITNERRFADNRTMFTQHIEKQRNVNTLNQNDINNSANNANVRENELTYQFQRWGQNHTVRILESSEGIRLKPSDTLVSDRLHEAQHNDVTAQRWVLTEQDERQGQRHQPHEEQENEGKFENDQKDES”, the “soluble on expression in E. coli” value is “soluble”.
In the case of “KLSPMIDLWDTLQSLLHVQELHVVAAHGEVKELLVRMSLNEATIPPEKVPIHAINLLLEDTVIPFIFTMEEERSISIPYTDSIDKYVYEPHTALLKAGAFKTVAYRLGLRKLHPNSHLYTSEAYESAFPGRTFVLEEIIPFSTSVLKQLRKVVPQASISCRNFPLSPIELRQRSKMADGGEKTLMGTTMADGKKVLLLLRKAE”, the “soluble on expression in E. coli” value is “not soluble”.
To “MGSDKIHHHHHHMREYIKEGIKLAVTNIPEDVVSAIREALEREESKIAKYNLEMILKAIDISRKEGIPVCQDTGTPIFFVRTNGPINKIYDEIVKGVEIATREVPLRPNALHVLDGKVIGNVPEVHFEPGKETLISILMKGGGSENCTALFPLTPAEGLEGVKNKVIEHVQSCGGKPCPPIIVGIGIASPAEKAIILAKKALLRRISERHPNEKLAKFERELLEEINSLGIGPMGLGGRTTALDVKVEVETRHPASYIVGVVIQCWAHRRAFIKVSEGGVKIWQ” belongs “not soluble”; to “MITKDVKEQLIQVSGPENFDDSNAGRLVYSYDATPQYQSMPDAVIAPRNTDEISRILTICSEHRVPIVPRGSGTNLCGGTCPTEGGLVLLFKHMNQILEIDEENLTATVQPGVITLDMIRAVESKGLFYPPDPSSMKISTIGGNINENSGGLRGLKYGVTRDYVIGLEVVLANGDIIRTGGKLAKDVAGYDLTRLFVGSEGTLGIVTEAIVKLVPKPETKKTLLALYENIDAAAQTVSDIIAAKIIPATLEFLDQPTLLVIEDYAKIGLPTSAKAVLLIEQDGPFETVERDMEKIEAICKKGDAVSVQTAQTEEEAFALTEARRSALSALARLKPTTILEDATVPRSEIANMVKAINDIAAKYDISICTFGHAGDGNLHPTCTTDIRNKDEMERVEQAFAEIFEKAIELGGTITGEHGVGEMKAPYLEMKLKKEGIDAMKALKAAFDPRNILNPGKMFAKDARKR”, “not soluble”.
For “GERRIPESRILRREVVEATSAVAAALQIPARAPVIEMTRVRLIDGAPMLAEEIWLPYDRFAAFSRLELDSIGDLLYPVYEAHCNQIVASATETLTVEAIGPAHARLLRIEPGTPAVVIERLAYGYDRRPLEWRRSRGPASEFIYQAEIR”, the “soluble on expression in E. coli” value is “not soluble”.
